# Reference: patent US11447566B2, “Anti-tissue factor antibodies, antibody-drug conjugates, and related methods” (Iconic Therapeutics, Inc., priority 2018, dated 2022)
# Legend:
# [1] = tested on: human thrombin generation (relipidated TF, normal pooled plasma); assay: Thrombin generation assay (TGA); type: biochemical; conditions: 100 nM antibody, Example 18
# Method: (§1) The TGA assay was performed using the calibrated-automated-thrombogram (CAT) instrument manufactured and distributed by STAGO. The test method design was equivalent to a standard CAT assay measurement, except that the plasma source was NPP in citrate/CTI. […] Relipidated TF was added to a 96-well assay plate, followed by addition of the antibody/NPP mixture. After a 10-min incubation or directly after combining the relipidated TF with antibody/NPP, thrombin generation was initiated by the addition of calcium and the thrombin substrate. The STAGO software was used to report the following parameters: Peak IIa (highest thrombin concentration generated [nM]); Lag Time (time to IIa generation [min]); ETP (endogenous thrombin potential, area under the curve [nM×min]); and ttPeak (time to Peak IIa [min]).
# as §1, with “was normal pooled plasma (NPP)” for “was NPP”, “in citrate supplemented with corn trypsin inhibitor (citrate/CTI).” for “in citrate/CTI.”
# TGA assay was performed using the calibrated-automated-thrombogram (CAT) instrument manufactured and distributed by STAGO (Diagnostica Stago SAS, Asnieres sur Seine, France). […] The anti-TF antibodies were titrated at 0, 10, 50 and 100 nM and mixed with NPP in citrate/CTI. Relipidated TF was added to a 96-well assay plate, followed by addition of the antibody/NPP mixture. After a 10-min incubation or directly after combining the relipidated TF with antibody/NPP, thrombin generation was initiated by the addition of calcium and the thrombin substrate. The STAGO software was used to report the following parameters: Peak IIa (highest thrombin concentration generated on the thrombin generation curve [nM]); Lag Time (time from assay start to the moment 10 nM of thrombin is formed [min]); ETP (endogenous thrombin potential, area under the curve [nM×min]); and ttPeak (time from assay start to Peak IIa [min]). […] As used herein, the term “thrombin generation assay” (TGA) refers to the TGA used in this example.
# [2] = target: T1, TF:FVIIa on MDA-MB-231 cells (Homo sapiens, UniProt P13726); assay: FXa conversion assay; type: cell-based; conditions: concentrations of 25, 50, and 100 nM; FIG. 14A
# T1 construct: MDA-MB-231 cells (ATCC, Manassas, Va., USA) were plated; host or cells: MDA-MB-231
# Method: To evaluate the ability of TF:FVIIa to convert FX into FXa in the presence of human antibodies against TF, 5×10^4 MDA-MB-231 cells (ATCC, Manassas, Va., USA) were plated into tissue culture-treated black 96-well plates (Greiner Bio-One, Monroe, N.C., USA). […] Upon reconstitution of the binary TF:FVIIa complex with a final concentration of 20 nM of FVIIa, cells were incubated for 5 min at 37° C.
# Briefly, 5×10^4 MDA-MB-231 cells (ATCC, Manassas, Va., USA) were plated into tissue culture-treated black 96-well plates (Greiner Bio-One, Monroe, N.C., USA) and cultured overnight. […] Upon reconstitution of the binary TF:FVIIa complex with a final concentration of 20 nM of FVIIa, cells were incubated for 5 min at 37° C.
# [3] = target: T2, human TF on MDA-MB-231 cells (FVII-Fc binding) (Homo sapiens, UniProt P13726); assay: FVIIa competition assay; conditions: highest concentration of antibody; FIG. 14B
# T2 construct: TF-positive MDA-MB-231 cells (ATCC, Manassas, Va., USA); host or cells: MDA-MB-231
# Method: To evaluate competition between FVIIa and the human antibodies against TF, TF-positive MDA-MB-231 cells (ATCC, Manassas, Va., USA) were first incubated for 1 hr on ice with a titration of the human antibodies against TF. Subsequently, a final concentration of 20 nM of FVII-Fc conjugated to Alexa488 was added to the antibody cell mixture. After another 1 hr incubation on ice, cells were washed, stained with a viability dye, and analyzed by flow cytometry. The Alexa488 fluorescence data from viable cells was summarized using median fluorescence intensity.
# Subsequently, FVII-Fc conjugated to Alexa488 was added to the antibody-cell mixture at a final concentration of 20 nM. After another 1 hr incubation on ice, cells were washed, stained with a viability dye, and analyzed by flow cytometry. The Alexa488 fluorescence data from viable cells was summarized using median fluorescence intensity (MFI).
# [4] = target: T3, human TF on MDA-MB-231 cells (25A3-Alexa488 binding) (Homo sapiens, UniProt P13726); assay: Antibody competition assay with 25A3; conditions: pre-incubation with unlabeled competitor antibody
# T3 construct: TF-positive MDA-MB-231 cells (ATCC, Manassas, Va., USA); host or cells: MDA-MB-231
# Method: Alexa Fluor antibodies were generated using Alexa Fluor 488 5-sulfo-[…] esters (ThermoFisher Scientific) following manufacturer's protocol. Excess Alexa Fluor dye was removed from the antibody dye conjugate preparations by gel filtration (ThermoFisher Scientific).
# After another 1 hr incubation on ice, cells were washed, stained with a viability dye, and analyzed by flow cytometry. The Alexa488 fluorescence data from viable cells was summarized using median fluorescence intensity.
# [5] = target: T4, human, rat and chimeric human-rat TF constructs expressed on HEK293 cells (Homo sapiens, UniProt P13726); assay: Live cell staining assay on chimeric TF constructs (epitope binning); type: cell-based; conditions: construct hTF
# T4 construct: expressed in transfected cells; host or cells: HEK293
# Method: (§2) To establish binding of the anti-human TF antibodies to the various TF constructs, HEK293 cells were transfected with a DNA plasmid that co-expresses the TF construct and a green fluorescent protein marker. […] Two days after transfection, cells were collected from the tissue culture plate, stained with 15 μg/ml of the indicated anti-TF antibody, washed, stained with anti-human IgG-Fc Alexa Fluor 647 polyclonal antibody, washed, and stained with the viability dye 4′,6-Diamidino-2-Phenylindole, Dihydrochloride. Upon acquisition of 80,000 live events on a flow cytometer, live cells marked with the fluorescent marker were analyzed for the degree of staining by the anti-TF antibody. […] As used herein, the term “live cell staining assay” refers to the antibody binding assay used in this example.
# (§3) When “Percentage antibody binding to TF construct relative to hTF” in Tables 51 and 52 was less than 50%, the antibody was considered a non-binder (0) in Tables 53 and 54.
# (§4) Each antibody was assigned to an epitope bin in Table 55 based on the combination of unbound constructs from Table 53.
# [6] = target: T5, human, rat and chimeric human-rat TF constructs expressed on HEK293 cells (Homo sapiens, UniProt P13726, D177Q/N170G/R168K/S174T); assay: as above; type: cell-based; conditions: construct h133-145_r (4), human segment replaced by rat segment
# T5 construct: expressed in transfected cells; host or cells: HEK293
# Method: as §2, §3, §4
# [7] = target: T6, human, rat and chimeric human-rat TF constructs expressed on HEK293 cells (Homo sapiens, UniProt P13726, I184G/K181N/T186I/W190R/Y188T); assay: as above; type: cell-based; conditions: construct h146-158_r (5), human segment replaced by rat segment
# T6 construct: expressed in transfected cells; host or cells: HEK293
# Method: as §2, §3, §4
# [8] = target: T7, human, rat and chimeric human-rat TF constructs expressed on HEK293 cells (Homo sapiens, UniProt P13726, I184G/T186I/W190R/Y188T); assay: as above; type: cell-based; conditions: construct h152-158_r (4), human segment replaced by rat segment
# T7 construct: expressed in transfected cells; host or cells: HEK293
# Method: as §2, §3, §4
# [9] = target: T8, human, rat and chimeric human-rat TF constructs expressed on HEK293 cells (Homo sapiens, UniProt P13726, N203H/T229K); assay: as above; type: cell-based; conditions: construct hTF_N171H_T197K
# T8 construct: expressed in transfected cells; host or cells: HEK293
# Method: as §2, §3, §4
# [10] = target: T9, human, rat and chimeric human-rat TF constructs expressed on HEK293 cells (Rattus norvegicus, UniProt P42533, A222V/D193S/E213D/F221S/G171N/G185I/H204N/I187T/K169R/N182K/N201A/Q178D/R191W/R198K/S217N/T175S/T189Y/T196S/T202K/V216E); assay: as above; type: cell-based; conditions: construct r141-194_h, rat amino acid segment replaced by human segment (20 amino acid changes)
# T9 construct: expressed in transfected cells; host or cells: HEK293
# Method: as §2, §3, §4
substance,measurement,setting,value
TF-011 [reference compound],reduction of the peak IIa concentration,[1]; 10 min antibody pre-incubation,91%
same,reduction of the peak IIa concentration,[1]; without antibody pre-incubation,91%
same,inhibition of FX conversion,[2],57-59%
same,competition with FVII,[3],effectively competed
same,% 25A3 binding,[4],did not reduce
same,Antibody binding to TF construct,[5]; Table 54,"1 (between 50% and 150%, the antibody was considered a binder (1))"
same,Antibody binding to TF construct,[5],"1 (between 50% and 150%, the antibody was considered a binder (1))"
same,Antibody binding to TF construct,[6],"1 (between 50% and 150%, the antibody was considered a binder (1))"
same,Antibody binding to TF construct,[7],"1 (between 50% and 150%, the antibody was considered a binder (1))"
same,Antibody binding to TF construct,[8],"1 (between 50% and 150%, the antibody was considered a binder (1))"
same,Antibody binding to TF construct,[9],"1 (between 50% and 150%, the antibody was considered a binder (1))"
same,Antibody binding to TF construct,[10],"0 (less than 50%, the antibody was considered a non-binder (0))"
